Laboratory results reported in publication PMC12149301.

Biological target: CDTb D623A + D734A Ca^2+-binding double mutant, active form (Clostridioides difficile)
Test: cryo-EM structure

CDTb D623A + D734A Ca^2+-binding double mutant, active form (natural protein)
stoichiometry N: 7
